Each block holds one binder with its values, some of them ahead of it.
Legend:
human CD20 [1] = molecular target: T1, human CD20 (human, UniProt P11836 1-297); assay: flow cytometry on Raji-CD47KO cells (CD20+CD47-)
T1 construct: whole, on cells; Endogenous CD20 on a tumor cell line
T1 sequence (looked up): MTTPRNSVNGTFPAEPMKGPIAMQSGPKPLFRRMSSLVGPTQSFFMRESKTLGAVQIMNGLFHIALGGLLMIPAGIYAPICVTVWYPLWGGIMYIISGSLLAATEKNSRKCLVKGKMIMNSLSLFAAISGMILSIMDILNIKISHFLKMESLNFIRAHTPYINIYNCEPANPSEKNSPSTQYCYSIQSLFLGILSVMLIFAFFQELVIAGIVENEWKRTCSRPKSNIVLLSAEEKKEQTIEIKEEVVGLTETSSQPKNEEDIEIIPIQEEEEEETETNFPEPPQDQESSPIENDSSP

human CD47 [2] = molecular target: T2, human CD47 (human, UniProt Q08722 19-323); assay: FACS competition on Jurkat cells; competitor 25 nM biotin-SIRPα-Fc, detected with FITC-streptavidin
T2 construct: whole, on cells; Endogenous CD47 on tumor cell lines
Procedure: (§1) The mixture was cultured at RT for 30 minutes, and then incubated with Jurkat cells at RT for 1 hour. After washes, the cells was added with fluorescence labeled streptavidin (FITC-Strep) and then incubated at RT for 1 hour.

human CD47 [3] = molecular target: T2, human CD47; assay: flow cytometry on Jurkat cells (CD20-CD47+)
human CD20 [4] = molecular target: T1, human CD20; assay: cell-based or functional assay
human CD47 [5] = molecular target: T2, human CD47; assay: cell-based or functional assay
human CD47 [6] = molecular target: T2, human CD47; assay: FACS competition on Jurkat cells against 25 nM labelled SIRPα-Fc. Number printed in the IC50 table although the Rituximab curve shows no inhibition (see non_binding). The table prints no unit, nM is taken from the concentration axis
Procedure: as §1

EC50 (human CD20 [1]): 0.08 nM
EC50 (human CD47 [2]): 476 nM
EC50 (human CD47 [3]): 2.72 nM
ADCC EC50, Raji target cells, NK92MI-CD16a effector cells (human CD20 [4]): 0.14 ng/mL
ADCC EC50, Raji-CD47KO target cells, NK92MI-CD16a effector cells (human CD20 [4]): 0.14 ng/mL
CDC EC50, Raji target cells, rabbit complement (human CD20 [4]): 11 nM
B1: CD20mAb-SD1 (bispecific antibody, human IgG1, kappa)
heavy: not shown
light: QIVLSQSPAILSASPGEKVTMTCRASSSVSYIHWFQQKPGSSPKPWIYATSNLASGVPVRFSGSGSGTSYSLTISRVEAEDAATYYCQQWTSNPPTFGGGTKHELKRTVAAPSVFIFPPSDEQLKSGTASVVCLLNNFYPREAKVQWKVDNALQSGNSQESVTEQDSKDSTYSLSSTLTLSKADYEKHKVYACEVTHQGLSSPVTKSFNRGEC
notes: Four chains, two heavy and two light, joined by disulfide bonds; Expressed in CHO cells; also called recombinant bi-functional fusion protein; CD20Ab-SD1

EC50 (human CD20 [1]): 0.4 nM
EC50 (human CD47 [2]): 19.7 nM
EC50 (human CD47 [3]): 0.09 nM
phagocytosis of HL-60 cells by mouse macrophage cell line Ana-1, EC50 (human CD47 [5]): 300 ng/mL
ADCC EC50, Raji target cells, NK92MI-CD16a effector cells (human CD20 [4]): 0.15 ng/mL
ADCC EC50, Raji-CD47KO target cells, NK92MI-CD16a effector cells (human CD20 [4]): 0.1 ng/mL
CDC EC50, Raji target cells, rabbit complement (human CD20 [4]): 3.36 nM
B2: SD1-CD20mAb (bispecific antibody, human IgG1, kappa)
heavy: not shown
light: B1 light
notes: Four chains, two heavy and two light, joined by disulfide bonds; Expressed in CHO cells; also called recombinant bi-functional fusion protein

EC50 (human CD20 [1]): 0.06 nM
IC50 (human CD47 [6]): 7.19 nM
ADCC EC50, Raji target cells, NK92MI-CD16a effector cells (human CD20 [4]): 3.82 ng/mL
ADCC EC50, Raji-CD47KO target cells, NK92MI-CD16a effector cells (human CD20 [4]): 1.13 ng/mL
B3: Rituximab (antibody, V domains shown)
VH: QVQLQQPGAELVKPGASVKMSCKASGYTFTSYNMHWVKQTPGRGLEWIGAIYPGNGDTSYNQKFKGKATLTADKSSSTAYMQLSSLTSEDSAVYYCARSTYYGGDWYFNVWGAGTTVTVSA
VL: QIVLSQSPAILSASPGEKVTMTCRASSSVSYIHWFQQKPGSSPKPWIYATSNLASGVPVRFSGSGSGTSYSLTISRVEAEDAATYYCQQWTSNPPTFGGGTKLEIK
notes: Comparator antibody; also called Rituxan

— patent US20200095339A1 (IMMUNEONCO BIOPHARMACEUTICALS SHANGHAI, published 2020)
